Experimental findings from the supplement of paper PMC12042874 are described below.

± gives the uncertainty stated by the source.

The nature of this series: amyloid nucleation score (Sup35N fusion, yeast selection) (log enrichment); library NNK3; higher = more nucleation; inactive = no reads after selection. The method in brief: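 Nucleation score is defined as the DiMSum log enrichment of output over input reads, with centring on the mode score of non-aggregating sequences. A minimum of 100 input reads was required for each sequence. Reads came from Illumina sequencing of plasmid inserts from psi-negative yeast expressing Sup35N fused to peptides of 20 random codons, induced with 100 μM copper sulfate for 24 hours and grown 7 days at 30°C on medium lacking adenine and uracil.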

For the substance SFCWASKSVHRSRG, the amyloid nucleation score entry is “inactive”.

Regarding RCSLLRNIG, the amyloid nucleation score result was “inactive”.

For MYNNC, the amyloid nucleation score entry was “inactive”.

Regarding TTVMLTKLYMFEGPNRFTAL, the amyloid nucleation score came out at 0.961 ± 0.084.

Turning to FAILNFGMSSIIFVCLTCAN, the amyloid nucleation score result is “inactive”.

Turning to DEIACPYSAWLRMSMPEARS, the amyloid nucleation score result was “inactive”.

YQYPVVDKRMYIFTTMFYFT registered an amyloid nucleation score of 2.57 ± 0.082.

With YKFSVTTL, the amyloid nucleation score result was “inactive”.

On to WGLGFFAI, for which the amyloid nucleation score entry was “inactive”.

Consider IFVNSTVLFLMHVCCLSVIS, for which the amyloid nucleation score amounted to 2.12 ± 0.068.

As to AFNVIRYVVWFSMVRASNAS, the amyloid nucleation score result was “inactive”.

For the substance SYAPKMSIRGMNFKTVMVFL, the amyloid nucleation score was found to be 2.37 ± 0.076.

Regarding RPTTIGINNDW, the amyloid nucleation score result was “inactive”.

With MFGFRNITK, the amyloid nucleation score was found to be 0.583 ± 0.2.

As to GSVSYISLSDNWVSGRKK, the amyloid nucleation score entry was “inactive”.

As for QLHTDYPFGACLFSCDGLDM, the amyloid nucleation score entry was “inactive”.

In the case of MRILKHMFQVDWLVNAMDAE, the amyloid nucleation score entry is “inactive”.

In the case of FILRLVEVSNFCTRYRNAYS, the amyloid nucleation score entry was “inactive”.

Consider WVLLRWAGY, for which the amyloid nucleation score is -0.611 ± 2.4.

On to LRVFWRTFCVSWSECNKMLE, for which the amyloid nucleation score entry is “inactive”.

For KSQLFLMWSSSKLLTYTVQA, the amyloid nucleation score result is “inactive”.

For the substance VMMDWILQIVAYSSDHTGSK, the amyloid nucleation score result is “inactive”.

On to YAMCIISIAFPLTL, for which the amyloid nucleation score result was “inactive”.

For SVCWVFYCFFSLWCRLSESR, the amyloid nucleation score result was “inactive”.

Regarding QMKKLWFF, the amyloid nucleation score result is “inactive”.

Turning to PSFMLVVIKVTYVMADSNMR, the amyloid nucleation score result was “inactive”.

On to FWLTNISFDLKFKINSSEFT, for which the amyloid nucleation score was determined as 0.205 ± 0.33.

As for WCFGYLHMNIV, the amyloid nucleation score entry was “inactive”.

Regarding RHRQSPYIINSVVIFGNQGT, the amyloid nucleation score worked out at 2.5 ± 0.067.

On to GDTDFYRSCNASYIPSLSRL, for which the amyloid nucleation score entry is “inactive”.

For HFNRVLVPYAFSFIGKMEWF, the amyloid nucleation score entry is “inactive”.

RLGCCGVSSEWVCRKYLLRG: the amyloid nucleation score result is “inactive”.

In the case of HWSRFQYGLVFRNFIVQNLD, the amyloid nucleation score entry was “inactive”.

For the substance SRWVLSWSIVITIHLDMRSL, the amyloid nucleation score result was “inactive”.

For CIAMKMWKNIRRWWSGRVAG, the amyloid nucleation score entry is “inactive”.

Consider SRWTCLNFVWSTSQHLQWN, for which the amyloid nucleation score result is “inactive”.

For the substance PFSWCFICKSL, the amyloid nucleation score result is “inactive”.

Regarding WALTRLRAPPF, the amyloid nucleation score entry is “inactive”.

For the substance LVRIMYL, the amyloid nucleation score result was “inactive”.

As for NRVSGALKPLVVS, the amyloid nucleation score entry was “inactive”.

For the substance FSGRMVFNPPIISCSYSWSW, the amyloid nucleation score entry is “inactive”.

For the substance LRWMFPLPRNVSHCSLA, the amyloid nucleation score entry was “inactive”.

Take CRQVRFALLNFLAAG: the amyloid nucleation score result is “inactive”.

In turn, CLKSA displayed an amyloid nucleation score of -0.912 ± 0.93.

RIQCLCVDVLSVMLSVHA showed an amyloid nucleation score of 1.48 ± 0.11.

Substance CIRICNISFFL showed an amyloid nucleation score of 2.71 ± 0.075.

Take ESSFSGLYYDSAM: the amyloid nucleation score result is “inactive”.

In turn, RSFHNHHWTVNY displayed an amyloid nucleation score of 1.46 ± 0.11.

TEYFSRCRF returned an amyloid nucleation score of 0.36 ± 0.49.

For the substance PVALLTD, the amyloid nucleation score result is “inactive”.

Regarding EFGWQL, the amyloid nucleation score result was “inactive”.

Substance SFSCYCTLLGLSVHYVNPTV displayed an amyloid nucleation score of 1.82 ± 0.1.

Consider RKKLEGVFVRLFQFANPIVG, for which the amyloid nucleation score result was “inactive”.

As for IYGLPRYFVGYGFFKSYVRL, the amyloid nucleation score result is “inactive”.

For IYMFVHIK, the amyloid nucleation score came to 1.68 ± 0.086.

As to RKGFKAIGY, the amyloid nucleation score result is “inactive”.

Turning to GVMYQACWSLASTYFTVNSS, the amyloid nucleation score result is “inactive”.

With LIVYFRPYGNALRRFVRSYV, the amyloid nucleation score result was “inactive”.

Turning to WSSVFESLQSLMIIFRRLAD, the amyloid nucleation score entry is “inactive”.

On to SAYVYTD, for which the amyloid nucleation score was -0.156 ± 0.66.

Turning to FRIFVRRVI, the amyloid nucleation score was 2.33 ± 0.084.

As to NFKLLLTSPWYATV, the amyloid nucleation score entry was “inactive”.

CSEGLYGVSTVICCIISSVN showed an amyloid nucleation score of 2.2 ± 0.077.

In the case of RCLGLML, the amyloid nucleation score entry is “inactive”.

As for MSYSGTAHGDFLLRSCPARM, the amyloid nucleation score result was “inactive”.

NSRNLR: the amyloid nucleation score entry is “inactive”.

On to HQKALTAVMWFNNRRGGLFG, for which the amyloid nucleation score result is “inactive”.

TMQEGRLSSWYSTVFFS had an amyloid nucleation score of -0.073 ± 0.43.

Turning to FASRIWSSTITSCHLLSGSL, the amyloid nucleation score entry is “inactive”.

With KIYGIPYCTRVGCNLWPGAG, the amyloid nucleation score was 0.294 ± 0.39.

For WDLLTKLHVKIKFLDRGMMS, the amyloid nucleation score result is “inactive”.

As for GVFMLVSNFASNWAT, the amyloid nucleation score entry is “inactive”.

As to LENSNFWSCSWISRYIYIRN, the amyloid nucleation score entry was “inactive”.

For the substance NRFINASNS, the amyloid nucleation score result was “inactive”.

Consider NHFFALSLVII, for which the amyloid nucleation score entry is “inactive”.

Take NNRFTGILPVWTMHE: the amyloid nucleation score result is “inactive”.

Take CRQWCDWCTGSYPGYCFQC: the amyloid nucleation score result is “inactive”.

In turn, AENINCKMM returned an amyloid nucleation score of 1.45 ± 0.12.

Regarding GFIVGLLARSTIFTTNYMLK, the amyloid nucleation score entry is “inactive”.

For the substance GMHCFIEPLSRVFGSNCGNY, the amyloid nucleation score result was “inactive”.

As to LASKLDCVLPHYNVGRCNDP, the amyloid nucleation score stood at 0.297 ± 0.7.

For EVGYKTVFPVGIMNDIVMWM, the amyloid nucleation score entry is “inactive”.

On to YTALHWLYFVSCKFDEKVQW, for which the amyloid nucleation score entry was “inactive”.

For the substance CVLRAFATVKHFTSGLCSCG, the amyloid nucleation score result is “inactive”.

Turning to IMLKL, the amyloid nucleation score result was “inactive”.

The substance NLWLKSFWSLRLFLRDL had an amyloid nucleation score of 0.68 ± 0.23.

As for IVERSGVSGIWYLSGDLAKV, the amyloid nucleation score result was “inactive”.

Consider LFFYSYTSFSIC, for which the amyloid nucleation score entry was “inactive”.

Regarding LQPKLGIT, the amyloid nucleation score result is “inactive”.

Consider PMHGGTSSQSYNNLLRRSVK, for which the amyloid nucleation score entry is “inactive”.

With KYNANYQSSYNIVRLYRVFW, the amyloid nucleation score result is “inactive”.

On to NDSTHLRSRC, for which the amyloid nucleation score entry was “inactive”.

Take PSSKFVGGIS: the amyloid nucleation score result is “inactive”.

The substance RAICGMNFCNISHLT showed an amyloid nucleation score of 3.05 ± 0.067.

Consider TNRVIVSMRLYVMDLYYCRT, for which the amyloid nucleation score entry is “inactive”.

As for LETFI, the amyloid nucleation score result was “inactive”.

For ITMTCFCIMGAESISNLPMW, the amyloid nucleation score was 1.33 ± 0.11.

With NYCDIYQGSNIF, the amyloid nucleation score result was “inactive”.

Regarding GLFCNVFMNKCSS, the amyloid nucleation score result was “inactive”.

For LVCDHGSCVKMVIMTDFMSS, the amyloid nucleation score result was “inactive”.
